Reference: US20260167699A1 (Chugai, published 2026)

Target: T1, FcγRIIIa (human, UniProt P08637 17-208)
T1 construct: extracellular domain; also called 3a; FcγRIIIa extracellular domain
Assay: SPR (Biacore);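 also: antibody variants captured on an SPR sensor chip, with FcγRIIIa passed over as analyte in HBS-EP+ buffer at 25 °C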
Procedure: The antibody of interest was analyzed for its interaction with FcγR using a BiaCore™ T100, BiaCore™ A100, or BiaCore™ 4000 surface plasmon resonance system (GE Healthcare Japan Corp.). The running buffer used was HBS-EP+ (GE Healthcare Japan Corp.). The assay temperature was set to 25° C. The sensor chips used were: a chip prepared by immobilizing antigenic peptides onto Series S Sensor Chip CM5 (GE Healthcare Japan Corp.) by the amine coupling method; a chip prepared by immobilizing antigenic peptides biotinylated in advance onto Series S Sensor Chip SA (certified) (GE Healthcare Japan Corp.) through their interaction; a chip prepared by immobilizing protein L (ACTIGEN, BioVision, Inc.) onto Series S Sensor Chip CM5 (GE Healthcare Japan Corp.); and a chip prepared by immobilizing protein A/G (Thermo Fisher Scientific K.K.) onto Series S Sensor Chip CM5 (GE Healthcare Japan Corp.). The antibody of interest was captured onto any of these chips and allowed to interact with FcγR diluted with a running buffer. The antibody captured on the chip was washed off through the reaction of 10 mM glycine-HCl (pH 1.5) to regenerate the chip, which was repetitively used.

T1 sequence (P08637 other isoform, or with tags, fused parts or gaps): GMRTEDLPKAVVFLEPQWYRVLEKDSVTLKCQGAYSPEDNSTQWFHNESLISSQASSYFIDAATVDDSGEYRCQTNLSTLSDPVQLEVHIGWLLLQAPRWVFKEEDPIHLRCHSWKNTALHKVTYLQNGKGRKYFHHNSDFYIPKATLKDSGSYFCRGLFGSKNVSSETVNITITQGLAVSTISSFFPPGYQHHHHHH

Row | He/Con 3a | Binder
1 | 96.3 % of GpH7-A5/GpH7-B3/GpL16-k0 | GpH7-A5/GpH7-B3 variant T335_03V/GpL16-k0 (antibody, human IgG1, kappa, copies: 1 + 1 + 2) heavy 1: not shown heavy 2: not shown light: DIVMTQSPLSLPVTPGEPASISCQASESLVHSNRNTYLHWYLQKPGQSPQLLIYKVSNRFSGVPDRFSGSGSGTDFTLKISRVEAEDVGVYYCSQNTHVPPTFGQGTKVEIERTVAAPSVFIFPPSDEQLKSGTASVVCLLNNFYPREAKVQWKVDNALQSGNSQESVTEQDSKDSTYSLSSTLTLSKADYEKHKVYACEVTHQGLSSPVTKSFNRGEC
2 | 97.8 % of GpH7-A5/GpH7-B3/GpL16-k0 | GpH7-A5/GpH7-B3 variant T335_08L/GpL16-k0 (antibody, human IgG1, kappa, copies: 1 + 1 + 2) heavy 1: not shown heavy 2: not shown light: DIVMTQSPLSLPVTPGEPASISCQASESLVHSNRNTYLHWYLQKPGQSPQLLIYKVSNRFSGVPDRFSGSGSGTDFTLKISRVEAEDVGVYYCSQNTHVPPTFGQGTKVEIERTVAAPSVFIFPPSDEQLKSGTASVVCLLNNFYPREAKVQWKVDNALQSGNSQESVTEQDSKDSTYSLSSTLTLSKADYEKHKVYACEVTHQGLSSPVTKSFNRGEC
3 | 102 % of GpH7-A5/GpH7-B3/GpL16-k0 | GpH7-A5/GpH7-B3 variant T335_07I/GpL16-k0 (antibody, human IgG1, kappa, copies: 1 + 1 + 2) heavy 1: not shown heavy 2: not shown light: DIVMTQSPLSLPVTPGEPASISCQASESLVHSNRNTYLHWYLQKPGQSPQLLIYKVSNRFSGVPDRFSGSGSGTDFTLKISRVEAEDVGVYYCSQNTHVPPTFGQGTKVEIERTVAAPSVFIFPPSDEQLKSGTASVVCLLNNFYPREAKVQWKVDNALQSGNSQESVTEQDSKDSTYSLSSTLTLSKADYEKHKVYACEVTHQGLSSPVTKSFNRGEC
4 | 97 % of GpH7-A5/GpH7-B3/GpL16-k0 | GpH7-A5/GpH7-B3 variant T335_06M/GpL16-k0 (antibody, human IgG1, kappa, copies: 1 + 1 + 2) heavy 1: not shown heavy 2: not shown light: DIVMTQSPLSLPVTPGEPASISCQASESLVHSNRNTYLHWYLQKPGQSPQLLIYKVSNRFSGVPDRFSGSGSGTDFTLKISRVEAEDVGVYYCSQNTHVPPTFGQGTKVEIERTVAAPSVFIFPPSDEQLKSGTASVVCLLNNFYPREAKVQWKVDNALQSGNSQESVTEQDSKDSTYSLSSTLTLSKADYEKHKVYACEVTHQGLSSPVTKSFNRGEC
5 | 103 % of GpH7-A5/GpH7-B3/GpL16-k0 | GpH7-A5/GpH7-B3 variant T335_09D/GpL16-k0 (antibody, human IgG1, kappa, copies: 1 + 1 + 2) heavy 1: not shown heavy 2: not shown light: DIVMTQSPLSLPVTPGEPASISCQASESLVHSNRNTYLHWYLQKPGQSPQLLIYKVSNRFSGVPDRFSGSGSGTDFTLKISRVEAEDVGVYYCSQNTHVPPTFGQGTKVEIERTVAAPSVFIFPPSDEQLKSGTASVVCLLNNFYPREAKVQWKVDNALQSGNSQESVTEQDSKDSTYSLSSTLTLSKADYEKHKVYACEVTHQGLSSPVTKSFNRGEC
6 | 91.7 % of GpH7-A5/GpH7-B3/GpL16-k0 | GpH7-A5/GpH7-B3 variant T335_04F/GpL16-k0 (antibody, human IgG1, kappa, copies: 1 + 1 + 2) heavy 1: not shown heavy 2: not shown light: DIVMTQSPLSLPVTPGEPASISCQASESLVHSNRNTYLHWYLQKPGQSPQLLIYKVSNRFSGVPDRFSGSGSGTDFTLKISRVEAEDVGVYYCSQNTHVPPTFGQGTKVEIERTVAAPSVFIFPPSDEQLKSGTASVVCLLNNFYPREAKVQWKVDNALQSGNSQESVTEQDSKDSTYSLSSTLTLSKADYEKHKVYACEVTHQGLSSPVTKSFNRGEC

More lines, now with the values behind:

Row | Binder | He/Con 3a
7 | GpH7-A5/GpH7-B3 variant S337_04F/GpL16-k0 (antibody, human IgG1, kappa, copies: 1 + 1 + 2) heavy 1: not shown heavy 2: not shown light: DIVMTQSPLSLPVTPGEPASISCQASESLVHSNRNTYLHWYLQKPGQSPQLLIYKVSNRFSGVPDRFSGSGSGTDFTLKISRVEAEDVGVYYCSQNTHVPPTFGQGTKVEIERTVAAPSVFIFPPSDEQLKSGTASVVCLLNNFYPREAKVQWKVDNALQSGNSQESVTEQDSKDSTYSLSSTLTLSKADYEKHKVYACEVTHQGLSSPVTKSFNRGEC | 94.4 % of GpH7-A5/GpH7-B3/GpL16-k0
8 | GpH7-A5/GpH7-B3 variant S337_07I/GpL16-k0 (antibody, human IgG1, kappa, copies: 1 + 1 + 2) heavy 1: not shown heavy 2: not shown light: DIVMTQSPLSLPVTPGEPASISCQASESLVHSNRNTYLHWYLQKPGQSPQLLIYKVSNRFSGVPDRFSGSGSGTDFTLKISRVEAEDVGVYYCSQNTHVPPTFGQGTKVEIERTVAAPSVFIFPPSDEQLKSGTASVVCLLNNFYPREAKVQWKVDNALQSGNSQESVTEQDSKDSTYSLSSTLTLSKADYEKHKVYACEVTHQGLSSPVTKSFNRGEC | 88.3 % of GpH7-A5/GpH7-B3/GpL16-k0
9 | GpH7-A5/GpH7-B3 variant S337_11K/GpL16-k0 (antibody, human IgG1, kappa, copies: 1 + 1 + 2) heavy 1: not shown heavy 2: not shown light: DIVMTQSPLSLPVTPGEPASISCQASESLVHSNRNTYLHWYLQKPGQSPQLLIYKVSNRFSGVPDRFSGSGSGTDFTLKISRVEAEDVGVYYCSQNTHVPPTFGQGTKVEIERTVAAPSVFIFPPSDEQLKSGTASVVCLLNNFYPREAKVQWKVDNALQSGNSQESVTEQDSKDSTYSLSSTLTLSKADYEKHKVYACEVTHQGLSSPVTKSFNRGEC | 80.1 % of GpH7-A5/GpH7-B3/GpL16-k0
10 | GpH7-A5/GpH7-B3 variant S337_06M/GpL16-k0 (antibody, human IgG1, kappa, copies: 1 + 1 + 2) heavy 1: not shown heavy 2: not shown light: DIVMTQSPLSLPVTPGEPASISCQASESLVHSNRNTYLHWYLQKPGQSPQLLIYKVSNRFSGVPDRFSGSGSGTDFTLKISRVEAEDVGVYYCSQNTHVPPTFGQGTKVEIERTVAAPSVFIFPPSDEQLKSGTASVVCLLNNFYPREAKVQWKVDNALQSGNSQESVTEQDSKDSTYSLSSTLTLSKADYEKHKVYACEVTHQGLSSPVTKSFNRGEC | 89.7 % of GpH7-A5/GpH7-B3/GpL16-k0
11 | GpH7-A5/GpH7-B3 variant S337_18N/GpL16-k0 (antibody, human IgG1, kappa, copies: 1 + 1 + 2) heavy 1: not shown heavy 2: not shown light: DIVMTQSPLSLPVTPGEPASISCQASESLVHSNRNTYLHWYLQKPGQSPQLLIYKVSNRFSGVPDRFSGSGSGTDFTLKISRVEAEDVGVYYCSQNTHVPPTFGQGTKVEIERTVAAPSVFIFPPSDEQLKSGTASVVCLLNNFYPREAKVQWKVDNALQSGNSQESVTEQDSKDSTYSLSSTLTLSKADYEKHKVYACEVTHQGLSSPVTKSFNRGEC | 96.9 % of GpH7-A5/GpH7-B3/GpL16-k0
